Positions count from the first letter of the chain named. In names and notes the source's numbering stands.
B1: EtgB, NAD-dependent alcohol dehydrogenase (Pden_2367) (enzyme, Paracoccus denitrificans DSM 413)
chain: MAKTMKAAVVREFGKPLTIDEVPVPEPGPGMIQVRIQASGVCHTDLHAAEGDWPVKPNPPFIPGHEGVGFVSAVGAGVKHVKEGDRVGVPWLYTACGHCRHCLGGWETLCESQLNTGYSVNGGFADYVVADPNYVGHLPKNVDFLDIAPVLCAGVTVYKGLKVTDTKPGDWVVISGIGGLGHMAVQYAKAMGMNVAAVDIDDEKLALARKLGATVTVNAATEPDPAAAIRKQTDGGAQGVLVTAVGRKAFEQAIGMVARGGTVALNGLPPGDFPLDIFGMVLNGITVRGSIVGTRLDLQESLDFAGDGKVKATVHKAKLEDINNIFGQMHKGQIEGRMVLDMAG
notes: The enzyme holds zinc ions; also called EtgB WT; alcohol dehydrogenase EtgB; source: E. coli BL21 AI, purified (Ni-NTA, desalting, size exclusion on Superdex 200 Increase)
B2: EtgB (Paracoccus denitrificans PD1222; T44S) (protein)
chain: B1 chain with T44S
notes: pET16b, His-tagged, E. coli BL21 AI, Ni-NTA purified; homotetramer; zinc-dependent medium-chain alcohol dehydrogenase
B3: EtgB (Paracoccus denitrificans PD1222; H47N) (protein)
chain: B1 chain with H47N
notes: as for B2
B4: EtgB (Paracoccus denitrificans PD1222; H47N/T44S) (protein)
chain: B1 chain with T44S, H47N
notes: as for B2
B5: EtgA, NAD-dependent aldehyde dehydrogenase (Pden_2366) (enzyme, Paracoccus denitrificans DSM 413)
chain: MPNDQTHPFRGVNALPFEERYDNFIGGEWVAPVSGRYFTNTTPITGAEIGQIARSEAGDIELALDAAHAAKEKWGATSPAERANIMLKIADRMERNLELLATAETWDNGKPIRETMAADLPLAIDHFRYFAGVLRAQEGSISQIDDDTVAYHFHEPLGVVGQIIPWNFPLLMACWKLAPAIAAGNCVVLKPAEQTPAGIMVWANLIGDLLPPGVLNIVNGFGLEAGKPLASSNRIAKIAFTGETTTGRLIMQYASENLIPVTLELGGKSPNIFFADVAREDDDFFDKALEGFTMFALNQGEVCTCPSRVLIQESIYDKFMERAVQRVQAIKQGDPRESDTMIGAQASSEQKEKILSYLDIGKKEGAEVLTGGKAADLGGELSGGYYIEPTIFRGNNKMRIFQEEIFGPVVSVTTFKDQAEALEIANDTLYGLGAGVWSRDANTCYRMGRGIKAGRVWTNCYHAYPAHAAFGGYKQSGIGRETHKMMLDHYQQTKNMLVSYSPKKLGFF
notes: EtgA, NAD-dependent aldehyde dehydrogenase of Paracoccus denitrificans DSM 413, gene Pden_2366 amplified from genomic DNA and cloned into pET16b; also called aldehyde dehydrogenase EtgA; source: E. coli BL21 AI, purified (Ni-NTA, desalting, size exclusion on Superdex 200 Increase)

How the values were obtained:
purified protein [1] = substrate: CCO; test: purified protein; details: 100 mM glycine-NaOH pH 10, 2.4 mM NAD+, 30 °C, oxidation
purified protein [2] = substrate: CC(O)CO; test: purified protein; type: biochemical, Paracoccus denitrificans; details: 100 mM glycine-NaOH pH 10, 2.4 mM NAD+, 30 °C, oxidation
purified protein [3] = substrate: CC=O; test: purified protein; type: biochemical, Paracoccus denitrificans; details: 30 °C
purified protein [4] = substrate: CCCCO; test: purified protein; type: biochemical, Paracoccus denitrificans; details: 100 mM glycine-NaOH pH 10, 2.4 mM NAD+, 30 °C, oxidation
purified protein [5] = substrate: CCCO; test: purified protein; type: biochemical, Paracoccus denitrificans; details: 100 mM glycine-NaOH pH 10, 2.4 mM NAD+, 30 °C, oxidation
purified protein [6] = substrate: O=CCO; test: purified protein; type: biochemical, Paracoccus denitrificans; details: 30 °C
purified protein [7] = substrate: OCCO; test: purified protein; type: biochemical, Paracoccus denitrificans; details: 100 mM glycine-NaOH pH 10, 2.4 mM NAD+, 30 °C, oxidation
[8] = biological target: the molecule itself; test: cryo-EM structure; protein purified by Ni-NTA and size exclusion in buffer C (100 mM sodium chloride, 25 mM potassium phosphate pH 8.0, 1 mM DTT); Titan Krios 300 kV, K3 detector; processed in RELION-5.0; homo-oligomer seen in the map
[9] = 100 mM potassium phosphate pH 7.5, 0.2 mM NADH, reduction
[10] = 100 mM potassium phosphate pH 7.5, 2.4 mM NAD+, oxidation

Row | Protein | Km (purified protein [1]) [µM] | kcat (purified protein [1]) [s⁻¹] | kcat/Km (purified protein [1]) [M⁻¹ s⁻¹] | Km (purified protein [2]) [µM] | kcat (purified protein [2]) [s⁻¹] | kcat/Km (purified protein [2]) [M⁻¹ s⁻¹] | Km (purified protein [7]) [µM] | kcat (purified protein [7]) [s⁻¹] | kcat/Km (purified protein [7]) [M⁻¹ s⁻¹] | stoichiometry N [8] | also measured
1 | B1 | 120 ± 10 | 23.5 | 201000 | 59460 ± 3310 | 3.5 ± 0.1 | 59.6 ± 1 | 11050 ± 1320 | 7.2 ± 0.2 | 651 ± 22 | 4 | Km (purified protein [3]; [9]): 40 ± 10 µM; kcat (purified protein [3]; [9]): 158 ± 2.9 s⁻¹; kcat/Km (purified protein [3]; [9]): 3.84e+06 ± 240000 M⁻¹ s⁻¹; Km (purified protein [4]): 40 ± 10 µM; kcat (purified protein [4]): 8.4 ± 0.1 s⁻¹; kcat/Km (purified protein [4]): 213000 ± 14000 M⁻¹ s⁻¹; Km (purified protein [5]): 110 ± 10 µM; kcat (purified protein [5]): 18.7 ± 0.5 s⁻¹; kcat/Km (purified protein [5]): 176000 ± 14000 M⁻¹ s⁻¹; Km (purified protein [6]; [9]): 1040 ± 60 µM; kcat (purified protein [6]; [9]): 50.1 ± 1.2 s⁻¹; kcat/Km (purified protein [6]; [9]): 48300 ± 3200 M⁻¹ s⁻¹
2 | B2 | 100 ± 20 | 3.2 | 33200 | 27680 ± 1730 | 1.6 ± 0.1 | 57.8 ± 0.7 | 10170 ± 360 | 0.7 ± 0.1 | 70.2 ± 2.6 | – | –
3 | B3 | 230 ± 10 | 25.2 | 108000 | 67180 ± 8900 | 13.2 ± 0.6 | 197 ± 8 | 53690 ± 4040 | 14.7 ± 0.3 | 274 ± 6 | – | –
4 | B4 | 100 ± 20 | 10.7 | 105000 | 19750 ± 2980 | 6.5 ± 0.2 | 330 ± 11 | 11510 ± 1470 | 2.9 ± 0.1 | 251 ± 5 | – | –
5 | B5 | – | – | – | – | – | – | – | – | – | 4 | Km (purified protein [3]; [10]): 9 ± 1 µM; kcat (purified protein [3]; [10]): 1.3 ± 0.1 s⁻¹; kcat/Km (purified protein [3]; [10]): 135000 ± 21000 M⁻¹ s⁻¹; Km (purified protein [6]; [10]): 120 ± 10 µM; kcat (purified protein [6]; [10]): 6.3 ± 0.2 s⁻¹; kcat/Km (purified protein [6]; [10]): 51300 ± 4900 M⁻¹ s⁻¹

From PMC12214560, “NAD-dependent dehydrogenases enable efficient growth of Paracoccus denitrificans on the PET monomer ethylene glycol” (Nature Communications, 2025)
